Results taken from article doi:10.1101/2020.05.20.106609 (bioRxiv, 2020).

target: SARS-CoV-2 spike protein (SARS-CoV-2 Wuhan-Hu-1 (QHD43416), UniProt P0DTC2, stabilised); assay: ELISA

Binder	binding result
MD47 (scFv, V domains shown) V domain 1: QMQLVQSGGGLVQPGGSLRLSCAASGFTFSSYAMSWVRQAPGKGLEWVSAISSGGSTYYADSVKGRFTISRDNSKNTLYLQMNSLRAEDTAVYYCAKDLVTAPSYEAFDIWGQGTMITVSS V domain 2: NFMLTQPPSVSVAPGKTARITCGGNNIGSKSVHWYQQKPGQAPVLVIYYDSDRPSGIPERFSGSNSGNTATLTISRVEAGDEADYYCQVWDSSSHHHVVFGGGTKGTVL	binds
MD17 (scFv, V domains shown) VH: EVQLLESGGGLVQPGGSLRLSCSASGFTFSTYVMNWVRQAPGKGLEHVSGISSDGGITYYADSVKGRFTISRDNSKNTLYLQMSSLRVEDTAVYYCVKDQDSSSWYDAFDIWGQGTMVTVSS VL: DIVMTQSPSSLSASVGDRVTITCRASQSISNYLNWYQQKLGKAPKLLTYAASRLQSGVPSRFSASGSGTEFTLTISSLQPEDFATYYCQQSYTTPLTFGGGTKLEIK	binds
MD29 (scFv, V domains shown) VH: QMQLVQSGGGLVQPGGSLRLSCSASGFTFSTYVMNWVRQAPGKGPEHVSGISSDGGITYYADSVKGRFTISRDNSKNTLYLQMSSLRVEDTAVYYCVKDQDSSSWYDAFDIWGQGTMVTVSS VL: NIRLTQSPSSLSASVGDRVTITCRATQSISSYLNWYQQKPGKAPNLLIYAASSLQSGVPSRFSGSGSGTDFTLTISSLQPEDFATYYCHQTYTSPYTFGQGTKLEIK	binds
MD62 (scFv, V domains shown) VH: EVQLVQSGGGLIQPGGSLRLSCAASGVTVSSNYMTWVRQAPGKGLEWVSLIYSGGSTYYADSVKGRFTISRDNSKNTLYLQMNSLRAEDTAVYYCARDLQYYGMDVWGQGTMVTVSS VL: AIRMTQSPSSVSASVGDRVTITCRASQDIGSWLGWYQQKPGKAPKLLIYAASSLAGGVPSRFSGSGSGTDFTLTISSLQPEDFATYYCQQANSFPLTFGGGTKLEIK	binds
